{"source": "patent US20240124585A1", "about": "(SUTRO BIOPHARMA, published 2024)", "key": {"[1]": {"target": "T1, EpCAM on NCI-H1975 cells (UniProt P16422 24-314, limits assumed)", "T1 sequence (looked up)": "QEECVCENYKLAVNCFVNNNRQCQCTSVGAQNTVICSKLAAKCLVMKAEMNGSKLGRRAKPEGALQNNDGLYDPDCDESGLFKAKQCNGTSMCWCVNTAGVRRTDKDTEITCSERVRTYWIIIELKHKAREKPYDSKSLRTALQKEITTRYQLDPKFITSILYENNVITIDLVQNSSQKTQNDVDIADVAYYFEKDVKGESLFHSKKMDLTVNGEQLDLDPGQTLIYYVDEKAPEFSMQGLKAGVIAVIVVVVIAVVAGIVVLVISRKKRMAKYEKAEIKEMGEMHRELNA", "experiment": "cell-based or functional assay"}, "[2]": {"target": "T1, EpCAM on NCI-H1975 cells", "experiment": "cell-based or functional assay", "remark": "listed apart in the source"}}, "data": [{"binder": "aEpCAM × hOKT3 (MT110/AMG110) (bispecific antibody) MELVMTQSPSSLTVTAGEKVTMSCKSSQSLLNSGNQKNYLTWYQQKPGQPPKLLIYWASTRESGVPDRFTGSGSGTDFTLTISSVQAEDLAVYYCQNDYSYPLTFGAGTKLEIKGGGGSGGGGSGGGGSEVQLLEQSGAELVRPGTSVKISCKASGYAFTNYWLGWVKQRPGHGLEWIGDIFPGSGNIHYNEKFKGKATLTADKSSSTAYMQLSSLTFEDSAVYFCARLRNWDEPMDYWGQGTTVTVSSGGGGSDVQLVQSGAEVKKPGASVKVSCKASGYTFTRYTMHWVRQAPGQGLEWIGYINPSRGYTNYADSVKGRFTITTDKSTSTAYMELSSLRSEDTATYYCARYYDDHYCLDYWGQGTTVTVSSGEGTSTGSGGSGGSGGADDIVLTQSPATLSLSPGERATLSCRASQSVSYMNWYQQKPGKAPKRWIYDTSKVASGVPARFSGSGSGTDYSLTINSLEAEDAATYYCQQWSSNPLTFGGGTKVEIK", "values": [{"measurement": "T-cell mediated H1975 killing, EC50 (pM) Donor 1", "setting": "[1]", "result": 8, "unit": "pM"}, {"measurement": "T-cell mediated H1975 killing, EC50 (pM) Donor 2", "setting": "[1]", "result": 4, "unit": "pM"}, {"measurement": "Cell killing Donor #1 EC50 (pM)", "setting": "[2]", "result": 8.2, "unit": "pM"}, {"measurement": "Cell killing Donor #2 EC50 (pM)", "setting": "[2]", "result": 4.1, "unit": "pM"}]}]}
